B1: Divalent-cation tolerance protein CutA, P69488 (parent)
chain: MLDEKSSNTASVVVLCTAPDEATAQDLAAKVLAEKLAACATLIPGATSLYYWEGKLEQEYEVQMILKTTVSHQQALLECLKSHHPYQTPELLVLPVTHGDTDYLSWLNASLR

Variants of: B1
Details: Escherichia coli (strain K12), structure 3X3U, whole UniProt chain shown; for denaturant midpoint (higher = more stable) / ddG of mutation (higher = less stable): pH 8, 37 °C, GdnHCl, CD, Tris-HCl, reversible: yes; for Tm / change of melting temperature, mutant - wild type (higher = more stable): pH 9, Thermal, DSC, glycine Buffer, transition: 2, reversible: no

Variant	denaturant midpoint (higher = more stable)	Tm	change of melting temperature, mutant - wild type (higher = more stable)	ddG of mutation (higher = less stable)
MLDEKSSNTASVVVLCTAPDEATAQDLAAKVLAEKLAACATLIPGATSLYYWEGKLEQEYEVQMILKTTVSHVQALLECLKSHHPYQTPELLVLPVTHGDTDYLSWLNASLR	3.4 M	94 °C	4.1 °C	
MLDEKSSNTAVVVVLCTAPDEATAQDLAAKVLAEKLAACATLIPGATSLYYWEGKLEQEYTVQMILKTTVSHVQALLECLKSHHPYQTPELLVLPVTHGDTDYLSWLNASLR	4.2 M	114 °C	23.7 °C	
MLDEKSSNTASVVVLCTAPDEATAQDLAAKVLAEKLAACATLIPGATSLYYWEGKLEQQYEVQMILKTTVSHQQALLECLKSHHPYQTPELLVLPVTHGDTDYLSWLNASLR		98.3 °C	8.4 °C	
MLDEKSSNTASVVVLCTAPDEATAQDLAAKVLAEKLAACATLIPGATSLYYWEGKLEQLYEVQMILKTTVSHQQALLECLKSHHPYQTPELLVLPVTHGDTDYLSWLNASLR	2.96 M	100 °C	10.3 °C	-2.89 kcal/mol
MLDEKSSNTASVVVLCTAPDEATAQDLAAKVLAEKLAACATLIPGATSLYYWEGKLEQKYEVQMILKTTVSHQQALLECLKSHHPYQTPELLVLPVTHGDTDYLSWLNASLR	3.01 M	104 °C	14.3 °C	-3.92 kcal/mol
MLDEKSSNTASVVVLCTAPDEATAQDLAAKVLAEKLAACATLIPGATSLYYWEGKLEQEYEVQMILKTTVSHQQALLECLKSHHPDQTPELLVLPVTHGDTDYLSWLNASLR	2.67 M	76.8 °C	-13.1 °C	6.38 kcal/mol
MLDEKSSNTAAVVVLCTAPDEATAQDLAAKVLAEKLAACATLIPGATSLYYWEGKLEQEYEVQMILKTTVSHQQALLECLKSHHPYQTPELLVLPVTHGDTDYLSWLNASLR		106 °C	16.5 °C	
MLDEKSSNTAVVVVLCTAPDEATAQDLAAKVLAEKLAACATLIPGATSLYYWEGKLEQEYEVQMILKTTVSHQQALLECLKSHHPYQTPELLVLPVTHGDTDYLSWLNASLR	3.31 M	105 °C	15.1 °C	
MLDEKSSNTAIVVVLCTAPDEATAQDLAAKVLAEKLAACATLIPGATSLYYWEGKLEQEYEVQMILKTTVSHQQALLECLKSHHPYQTPELLVLPVTHGDTDYLSWLNASLR		103 °C	12.8 °C	
MLDEKSSNTASVVVLCTAPDEATAQDLAAKVLAEKLAACATLIPGATSLYYWEGKLEQKYVVQMILKTTVSHQQALLECLKSHHPYQTPELLVLPVTHGDTDYLSWLNASLR	3.24 M	104 °C	14.4 °C	-5.47 kcal/mol
MLDEKSSNTASVVVLCTAPDEATAQDLAAKVLAEKLAACATLIPQATSLYYWEGKLEQEYEVQMILKTTVSHQQALLECLKSHHPYQTPELLVLPVTHGDTDYLSWLNASLR		82.1 °C	-7.8 °C	
MLDEKSSNTAVVVVLCTAPDEATAQDLAAKVLAEKLAACATLIPGATSLYYWEGKLEQEYTVQMILKTTVSHQQALLECLKSHHPYQTPELLVLPVTHGDTDYLSWLNASLR	3.48 M	112 °C	22.4 °C	
MLDEKSSNTAVVVVLCTAPDEATAQDLAAKVLAEKLAACATLIPGATSLYYWEGKLEQEYVVQMILKTTVSHQQALLECLKSHHPYQTPELLVLPVTHGDTDYLSWLNASLR	3.8 M	114 °C	23.6 °C	
MLDEKSSNTASVVVLCTAPDEATAQDLAAKVLAEKLAACATLIPGATSLYYWEGKLEQETEVQMILKTTVSHQQALLECLKSHHPYQTPELLVLPVTHGDTDYLSWLNASLR		91.9 °C	2 °C	
MLDEKSSNTAVVVVLCTAPDEATAQDLAAKVLAEKLAACATLIPGATSLYYWEGKLEQKYTVQMILKTTVSHQQALLECLKSHHPYQTPELLVLPVTHGDTDYLSWLNASLR	3.48 M			
MLDEKSSNTASVVVLCTAPDEATAQDLAAKVLAEKLAACATLIPGATSLYYWEGKLEQEYTVQMILKTTVSHQQALLECLKSHHPYQTPELLVLPVTHGDTDYLSWLNASLR	2.99 M	98.6 °C	8.7 °C	-3.15 kcal/mol
MLDEKSSNTASVVVLCTAPDEATAQDLAAKVLAEKLAACATLIPGATSLYYWEGKLEQEYHVQMILKTTVSHQQALLECLKSHHPYQTPELLVLPVTHGDTDYLSWLNASLR		94.3 °C	4.4 °C	
MLDEKSSNTASVVVLCTAPDEATAQDLAAKVLAEKLAACATLIPGATSLYYWEGKLEQEYVVQMILKTTVSHQQALLECLKSHHPYQTPELLVLPVTHGDTDYLSWLNASLR	3.29 M	103 °C	13.5 °C	-3.42 kcal/mol
MLDEKSSNTAVVVVLCTAPDEATAQDLAAKVLAEKLAACATLIPGATSLYYWEGKLEQEYVVQMILKTTVSHVQALLECLKSHHPYQTPELLVLPVTHGDTDYLSWLNASLR	4.67 M			

Source: FireProtDB (doi:10.1093/jb/mvq079)
